The target of assay [1] is T1, recombinant human VEGF165 (human, UniProt P15692 207-395).
T1 construct: also called hVEGF165
Kind of assay: SPR (Biacore), antibody captured by anti-human Fc, hVEGF165 in solution. How it is done:
Unreacted moieties on the biosensor surface were blocked with ethanolamine. For kinetic analysis, rate equations derived from the 1:1 Langmuir binding model were fitted simultaneously to multiple antigen injections (using global fit analysis) with the use of Scrubber 2 (BioLogic Software), Biacore Biaevaluation 4.0.1 software or Biacore T100 Evaluation software. Purified antibodies or DVD-Ig molecules were diluted in running buffer for capture across goat anti-human Fc reaction surfaces. Antibodies or DVD-Ig molecules to be captured as a ligand (1 μg/ml) were injected over reaction matrices at a flow rate of 10 μl/minute. During the assay, all measurements were referenced against the capture surface alone (i.e., with no captured antibody or DVD-Ig molecule). […] The equilibrium dissociation constant KD (M) of the reaction between antibodies and the target antigen was then calculated from the kinetic rate constants by the following formula: KD=Koff/Kₒₙ. Binding was recorded as a function of time and kinetic rate constants were calculated. In this assay, on-rates as fast as 10⁶M⁻¹s⁻¹ and off-rates as slow as 10⁻⁶ s⁻¹ could be measured.
(§1) Affinity matured humanized anti-VEGF antibodies were characterized for hVEGF₁₆₅ binding and potency. Binding affinity of these molecules to hVEGF₁₆₅ was determined by Biacore analysis (Example 1.1). Potency was evaluated in both cell-based and ELISA formats. The ability to block binding of hVEGF₁₆₅ to hVEGFR2 was evaluated in a competition ELISA (Example 1.4) Inhibition of hVEGF₁₆₅-induced cell proliferation was assessed using HMVEC-d cells (Example 1.10).
T1 sequence (P15692 other isoform, or with tags, fused parts or gaps limits assumed): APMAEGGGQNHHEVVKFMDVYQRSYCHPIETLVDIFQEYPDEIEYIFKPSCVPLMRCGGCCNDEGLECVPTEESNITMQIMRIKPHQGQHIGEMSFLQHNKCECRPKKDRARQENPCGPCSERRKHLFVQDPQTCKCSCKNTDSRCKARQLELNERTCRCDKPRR

Assay [2] has as its target T1, recombinant human VEGF165. Kind of assay: competition ELISA: antibody titrated against biotinylated hVEGF165, binding to plate-coated hVEGF-R2-Fc. The protocol:
To identify molecules that could block the binding of hVEGF₁₆₅ to the hVEGF-R2 (KDR/Flk-1) receptor, a competition ELISA was performed. […] Plates were then washed four times with wash buffer (TBS, 0.05% Tween-20) and blocked with Superblock blocking buffer (Thermo Scientific, cat#37535). […] The pre-incubated sample/hVEGF₁₆₅ complex was added to the coated plate at 50 μL in duplicate and incubated for 30 minutes at 25° C. with shaking. Following incubation, plates were washed four times with wash buffer. Streptavidin-polyHRP-40 (Fitzgerald cal#65r-s104phrp) was diluted in assay diluent (10% Superblock containing 0.05% surfactamps) and added to plates (50 μL) for 45 minutes at 25° C. with shaking. Plates were washed four times with wash buffer and developed with the addition of Enhanced K-blue TMB substrate (Neogen cat#308177). The reaction was stopped with 2N sulfuric acid (VWR, cat# BDH3500-1) and the absorbance was read at 450 nm-570 nm. A decrease in observed optical density indicates the test molecule is blocking the hVEGF₁₆₅ binding to the hVEGF-R2-Fc. Data was analyzed using Softmax Pro 4.8 software and IC₅₀ values calculated using a sigmoidal dose response (variable slope) fit in GraphPad Prism 5.
as §1
Background: In an ELISA, binding on a coated surface is turned into a signal by an enzyme label.

Assay [3] has as its target T1, recombinant human VEGF165. The experiment in a line: cell-based or functional assay.
Assay [4] concerns the target recombinant human VEGF165 (human, UniProt P15692 207-395). Kind of assay: cell-based or functional assay. This is another data set of the same source.
Target sequence in this assay (P15692 other isoform, or with tags, fused parts or gaps limits assumed): as above
The target in assay [5] is recombinant human PDGF-BB (human, UniProt P01127 82-190). Kind of assay: cell-based or functional assay.
Chain of recombinant human PDGF-BB (P01127 82-190 limits assumed): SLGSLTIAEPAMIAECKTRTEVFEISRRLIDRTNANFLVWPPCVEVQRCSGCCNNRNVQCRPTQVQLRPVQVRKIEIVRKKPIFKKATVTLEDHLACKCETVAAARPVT

Some results are limits rather than exact numbers.

Results on ten molecules are retold here after patent publication US20170015742A1 (published 2017).

B1: CL-32416-IgG (antibody, V domains shown)
VH: EVQLVQSGSELKKPGASVKVSCKASGYTFTDYGMYWVRQAPGQGLEWMGWIDTETGEPTYADDFKGRFVFSLDTSVSTAYLQISSLKAEDTAVYYCARTNYYYRSYMFYFDYWGQGTMVTVSS
VL: EIVLTQSPATLSLSPGERATLSCRASESVSTHMHWYQQKPGQAPRLLIYGASNLESGVPARFSGSGSGTDFTLTISSLEPEDFAVYFCQQSWNDPFTFGQGTKLEIK
notes: also called h4G8 CL-32416
As for B1, in assay [1], the Kd (commonly a measure of binding affinity in units of concentration) is 0.00054 nM and the kon (in general, the second-order rate constant of association) turned out to be 2e+07 M⁻¹ s⁻¹. In addition, in assay [2], the IC50 (in general, the concentration that gives 50% inhibition) was less than 0.1 nM. Moreover, the “hVEGF165 IC50 (nM), Potency HMVEC-d (hVEGF165-induced proliferation)” value (“hVEGF165 IC50 (nM), Potency HMVEC-d” for short) in assay [3] was found to be 0.117 nM.

B2: CL-34475-IgG (antibody, V domains shown)
VH: EVQLVQSGSELKKPGASVKVSCKASGYTFTDYGMYWVRQAPGQGLEWMGWIDTETGEPTYADDFKGRFVFSLDTSVSTAYLQISSLKAEDTAVYYCARTNYYYSSYMFYFDYWGQGTMVTVSS
VL: EIVLTQSPATLSLSPGERATLSCRASQSVSTHMHWYQQKPGQAPRLLIYGASNLESGIPARFSGSGSGTDFTLTISSLEPEDFAVYYCQQSWYDPLTFGQGTKLEIK
notes: also called h4G8 CL-34475
As to B2, in assay [1], the Kd turned out to be 0.00052 nM and the kon was determined as 2.7e+07 M⁻¹ s⁻¹. Also, the IC50 in assay [2] was less than 0.1 nM. Further, the “hVEGF165 IC50 (nM), Potency HMVEC-d” value in assay [3] is 0.106 nM.

B3: CL-34522-IgG (antibody, V domains shown)
VH: EVQLVQSGSELKKPGASVKVSCKASGYTFENYGMYWVRQAPGQGLEWMGWIDTETGEPTYADDFKGRFVFSLDTSVSTAYLQISSLKAEDTAVYYCARTNYYYSSYMFYFDYWGQGTMVTVSS
VL: EIVLTQSPATLSLSPGERATLSCRASQSVGTHMHWYQQKPGQAPRLLIYGASKLESGVPARFSGSGSGTDFTLTISSLEPEDFAVYYCQQSWYDPLTFGQGTKLEIK
notes: also called h4G8 CL-34522
Regarding B3, in assay [1], the Kd was determined as 0.00053 nM and the kon was determined as 2e+07 M⁻¹ s⁻¹. For the same molecule, in assay [2], the IC50 was less than 0.1 nM. For the same molecule, in assay [3], the “hVEGF165 IC50 (nM), Potency HMVEC-d” value was 0.116 nM.

B4: CL-34565-IgG (antibody, V domains shown)
VH: EVQLVQSGSELKKPGASVKVSCKASGYTFTDYGMYWVRQAPGQGLEWMGWIDTETGDPTYADDFKGRFVFSLDTSVSTAYLQISSLKAEDTAVYYCARTNYYYRNYMFYFDYWGQGTMVTVSS
VL: EIVLTQSPATLSLSPGERATLFCRASQSVSNHMHWYQQKPGQAPRLLIYGASILESGVPARFSGSGSGTDFTLTISSLEPEDFAVYYCQQSWYDPITFGQGTKLEIK
notes: also called h4G8 CL-34565
On to B4, for which, in assay [1], the Kd worked out at 0.0004 nM and the kon stood at 2e+07 M⁻¹ s⁻¹. Also, the IC50 in assay [2] is less than 0.1 nM. In addition, the “hVEGF165 IC50 (nM), Potency HMVEC-d” value in assay [3] came to 0.126 nM.

B5: CL-34570-IgG (antibody, V domains shown)
VH: EVQLVQSGSELKKPGASVKVSCKASGYTFDDYGMYWVRQAPGQGLEWMGWIDTETGTPTYADDFKGRFVFSLDTSVSTAYLQISSLKAEDTAVYYCARTNYYYSSYMFYFDYWGQGTMVTVSS
VL: EIVLTQSPATLSLSPGERATLSCRASQSVSTHMHWYQQKPGQAPRLLIYGASNLESGIPARFSGSGSGTDFTLTISSLEPEDFAVYYCQQSWYDPLTFGQGTKLEIK
notes: also called h4G8 CL-34570
Regarding B5, in assay [1], the equilibrium dissociation constant (Kd) turned out to be 0.00029 nM and the kon turned out to be 1.9e+07 M⁻¹ s⁻¹. Moreover, in assay [2], the IC50 is less than 0.1 nM. The “hVEGF165 IC50 (nM), Potency HMVEC-d” value in assay [3] came out at 0.11 nM.

B6: CL-34540-IgG (antibody, V domains shown)
VH: EVQLVQSGSELKKPGASVKVSCKASGYTFTDYGMYWVRQAPGQGLEWMGWIDTETGQPTYADDFKGRFVFSLDTSVSTAYLQISSLKAEDTAVYYCARTNYYYRSYMFYFDYWGQGTMVTVSS
VL: EIVLTQSPATLSLSPGERATLSCRASESVGKHMHWYQQKPGQAPRLLIYAASNLESGVPARFSGSGSGTDFTLTISSLEPEDFAVYYCQQSWYDPLTFGQGTKLEIK
notes: also called h4G8 CL-34540
Consider B6, for which, in assay [1], the Kd was 0.00085 nM and the kon was found to be 8.4e+06 M⁻¹ s⁻¹. Besides, the IC50 in assay [2] is less than 0.1 nM. For the same molecule, in assay [3], the “hVEGF165 IC50 (nM), Potency HMVEC-d” value amounted to 0.139 nM.

B7: CL-34449-IgG (antibody, V domains shown)
VH: EVQLVQSGSELKKPGASVKVSCKASGYTFTDYGMYWVRQAPGQGLEWMGWIDTETGEPTYADDFKGRFVFSLDTSVSTAYLQISSLKAEDTAVYYCARTNYYYRSYMFYFDYWGQGTMVTVSS
VL: EIVLTQSPATLSLSPGERATLSCRASQSVGTHMHWYQQKPGQAPRLLIYGASHLESGIPARFSGSGSGTDFTLTISSLEPEDFAVYYCQQTWYDPLTFGQGTKLEIK
notes: also called h4G8 CL-34449
Take B7: in assay [1], the Kd came out at 0.00085 nM and the kon amounted to 1.1e+07 M⁻¹ s⁻¹. Besides, in assay [2], the IC50 is less than 0.1 nM. Besides, in assay [3], the “hVEGF165 IC50 (nM), Potency HMVEC-d” value was determined as 0.077 nM.

B8: CL-34538-IgG (antibody, V domains shown)
VH: EVQLVQSGSELKKPGASVKVSCKASGYTFTDYGMYWVRQAPGQGLEWMGWIDTETGEPTYADDFKGRFVFSLDTSVSTAYLQISSLKAEDTAVYYCARTNYYYPSYMFYFDYWGQGTMVTVSS
VL: EIVLTQSPATLSLSPGERATLSCRASQSVSTHMHWYQQKPGQAPRLLIYGASNLESGVPARFSGSGSGTDFTLTISSLEPEDFAVYFCQQTWYDPLTFGQGTKLEIK
notes: also called h4G8 CL-34538
Turning to B8, in assay [1], the Kd worked out at 0.00024 nM and the kon was found to be 3.3e+07 M⁻¹ s⁻¹. Further, in assay [2], the IC50 was less than 0.1 nM. Besides, in assay [3], the “hVEGF165 IC50 (nM), Potency HMVEC-d” value is 0.127 nM.

B9: CL-34469-IgG (antibody, V domains shown)
VH: EVQLVQSGSELKKPGASVKVSCKASGYTFTNYGMYWVRQAPGQGLEWMGWIDTETGEPTYADDFKGRFVFSLDTSVSTAYLQISSLKAEDTAVYYCARTNYYYRSYMFYFDYWGQGTMVTVSS
VL: EIVLTQSPATLSLSPGERATLSCRASQSVSTHMHWYQQKPGQAPRLLIYGASNLESGVPARFSGSGSGTDFTLTISSLEPEDFAVYYCQQSWYDPLTFGQGTKLEIK
notes: also called h4G8 CL-34469
For B9, in assay [1], the Kd stood at 0.00062 nM and the kon stood at 1.5e+07 M⁻¹ s⁻¹. Further, the IC50 in assay [2] is less than 0.1 nM. Besides, the “hVEGF165 IC50 (nM), Potency HMVEC-d” value in assay [3] came to 0.094 nM.

B10: 3E2.1_GS_1E3.4 (PR-1613190) (bispecific antibody, human IgG1, kappa, L234A L235A)
heavy: EVQLVQSGAEVKKPGSSVKVSCKASGYTFTESYMYWVKQAPGQGLELIGRIDPEDGSTDYVEKFKNKATLTADKSTSTAYMELSSLRSEDTAVYFCARFGARSYFYPMDAWGQGTTVTVSSGGGGSGGGGSEIQLVQSGSELKKPGASVKVSCKASGYPFTNSGMYWVKQAPGQGLEYMGWINTEAGKPTYADDFKGRFVFSLDTSVSTAYLQISSLKAEDTAVYFCARWGYISDNSYGWFDYWGQGTLVTVSSASTKGPSVFPLAPSSKSTSGGTAALGCLVKDYFPEPVTVSWNSGALTSGVHTFPAVLQSSGLYSLSSVVTVPSSSLGTQTYICNVNHKPSNTKVDKKVEPKSCDKTHTCPPCPAPEAAGGPSVFLFPPKPKDTLMISRTPEVTCVVVDVSHEDPEVKFNWYVDGVEVHNAKTKPREEQYNSTYRVVSVLTVLHQDWLNGKEYKCKVSNKALPAPIEKTISKAKGQPREPQVYTLPPSREEMTKNQVSLTCLVKGFYPSDIAVEWESNGQPENNYKTTPPVLDSDGSFFLYSKLTVDKSRWQQGNVFSCSVMHEALHNAYTQKSLSLSPGK
light: ETVLTQSPATLSLSPGERATLSCRASESVSTLMHWYQQKPGQQPRLLIYGASNLESGVPARFSGSGSGTDFTLTISSLEPEDFAVYFCQQSWNDPWTFGGGTKVEIKGGSGGGGSGGATQLTQSPSSLSASVGDRVTISCRASEGVYSYMHWYQQKPGKQPKLLIYKASNLASGVPSRFSGSGSGTDFTLTISSLQPEDFATYFCHQNWNDPLTFGQGTKLEIKRTVAAPSVFIFPPSDEQLKSGTASVVCLLNNFYPREAKVQWKVDNALQSGNSQESVTEQDSKDSTYSLSSTLTLSKADYEKHKVYACEVTHQGLSSPVTKSFNRGEC
Take B10: in assay [4], the “Potency IC50 (nM), HMVEC-d hVEGF165 (proliferation)” value worked out at 0.709 nM. The “Potency IC50 (nM), NIH-3T3 hPDGF-BB (proliferation)” value in assay [5] worked out at 0.896 nM.
